In patent US20070249813A1 (AbbVie / Abbott, published 2007):
Changes are numbered by the printed parent chain.

B1: VH1-D2/LOE7 (format printed as IgG1/IgG4 in Table 6, scFv/IgG1/IgG4 in Table 7) (antibody, V domains shown)
VH: QVQLVESGGGLVQPGRSLRLSCAASGFTFDDYAMHWVRQAPGKGLDWVSAITWNSGHIDYADSVEGRFAVSRDNAKNALYLQMNSLRPEDTAVYYCAKVSYLSTASSLDYWGQGTLVTVSS
VL: not shown
B2: VH1-D2/LOE7 scFv (scFv, V domains shown)
VH: B1 VH
VL: not shown
notes: scFv; not shown: the scFv linker and the order of the domains
B3: 2SD4/2SD4 (format printed as scFv/IgG1/IgG4) (antibody, V domains shown)
VH: B1 VH with A97T, V99A, A105S, Y110N
VL: DIQMTQSPSSLSASIGDRVTITCRASQGIRNYLAWYQQKPGKAPKLLIYAASTLQSGVPSRFSGSGSGTDFTLTISSLQPEDVATYYCQKYNSAPYAFGQGTKVEIK
B4: VH1-D2.N/LOE7.T IgG4 (antibody, V domains shown)
VH: B1 VH with Y110N
VL: not shown
notes: IgG4
B5: VH1E4/2SD4 VL scFv (scFv, V domains shown)
VH: B1 VH with V99A, A105S, D109H
VL: B3 VL
notes: scFv
B6: VH1F6/2SD4 VL scFv (scFv, V domains shown)
VH: B1 VH with V99A, Y101F, A105S, D109E
VL: B3 VL
notes: scFv
B7: VH1B11/2SD4 VL scFv (scFv, V domains shown)
VH: B1 VH with A97T, V99A, A105S, Y110K
VL: B3 VL
notes: scFv
B8: 2SD4 VH/VLLOG7 scFv (scFv, V domains shown)
VH: B1 VH with A97T, V99A, A105S, Y110N
VL: B3 VL with A97N
notes: scFv
B9: 2SD4 VH/VLL0F10 scFv (scFv, V domains shown)
VH: B1 VH with A97T, V99A, A105S, Y110N
VL: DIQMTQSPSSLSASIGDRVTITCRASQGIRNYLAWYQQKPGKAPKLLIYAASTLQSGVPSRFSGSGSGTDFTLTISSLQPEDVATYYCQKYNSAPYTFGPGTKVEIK
notes: scFv
B10: VH1B12/2SD4 VL scFv (scFv, V domains shown)
VH: B1 VH with V99A, A105S, S106F
VL: B3 VL
notes: scFv
B11: 2SD4 VH/VL10F4 scFv (scFv, V domains shown)
VH: B1 VH with A97T, V99A, A105S, Y110N
VL: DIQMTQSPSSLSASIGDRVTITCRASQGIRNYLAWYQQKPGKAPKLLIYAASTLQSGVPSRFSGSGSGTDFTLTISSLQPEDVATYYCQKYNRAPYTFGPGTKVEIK
notes: scFv
B12: VH1-D2/EP B12 scFv (scFv, V domains shown)
VH: B1 VH
VL: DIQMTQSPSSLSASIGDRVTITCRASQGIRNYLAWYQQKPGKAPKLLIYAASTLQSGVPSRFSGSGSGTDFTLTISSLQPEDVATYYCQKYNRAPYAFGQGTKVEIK
notes: scFv
B13: 2SD4 VH/EP B12 scFv (scFv, V domains shown)
VH: B1 VH with A97T, V99A, A105S, Y110N
VL: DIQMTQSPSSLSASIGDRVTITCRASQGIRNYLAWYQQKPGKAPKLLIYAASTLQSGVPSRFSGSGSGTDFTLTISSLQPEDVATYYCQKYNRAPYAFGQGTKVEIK
notes: scFv
B14: 2SD4 VH/VL100D2 scFv (scFv, V domains shown)
VH: B1 VH with A97T, V99A, A105S, Y110N
VL: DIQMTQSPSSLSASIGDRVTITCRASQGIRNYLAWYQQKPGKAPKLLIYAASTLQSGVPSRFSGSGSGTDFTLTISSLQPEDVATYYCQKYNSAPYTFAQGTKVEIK
notes: scFv
B15: VH1-D2/2SD4 VL scFv (scFv, V domains shown)
VH: B1 VH
VL: B3 VL
notes: scFv
B16: 2SD4 VH/VL0.1F4 scFv (scFv, V domains shown)
VH: B1 VH with A97T, V99A, A105S, Y110N
VL: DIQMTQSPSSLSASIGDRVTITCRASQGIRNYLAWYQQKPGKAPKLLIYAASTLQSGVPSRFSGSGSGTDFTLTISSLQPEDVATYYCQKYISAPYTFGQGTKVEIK
notes: scFv
B17: 2SD4 VH/VL1C7 scFv (scFv, V domains shown)
VH: B1 VH with A97T, V99A, A105S, Y110N
VL: B3 VL with A97N
notes: scFv
B18: 2SD4 VH/VL10E4 scFv (scFv, V domains shown)
VH: B1 VH with A97T, V99A, A105S, Y110N
VL: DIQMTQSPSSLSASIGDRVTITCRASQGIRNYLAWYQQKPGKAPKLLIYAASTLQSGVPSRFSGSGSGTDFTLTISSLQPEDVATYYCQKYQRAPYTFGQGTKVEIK
notes: scFv
B19: 2SD4 VH/VLLOG9 scFv (scFv, V domains shown)
VH: B1 VH with A97T, V99A, A105S, Y110N
VL: B3 VL with N92T, A97T
notes: scFv
B20: 2SD4 VH/VL1C1 scFv (scFv, V domains shown)
VH: B1 VH with A97T, V99A, A105S, Y110N
VL: B3 VL with A94D, A97T
notes: scFv
B21: 2SD4 VH/VLLOH10 scFv (scFv, V domains shown)
VH: B1 VH with A97T, V99A, A105S, Y110N
VL: B3 VL with P95A, A97S
notes: scFv
B22: VH1-D2.N/LOE7.A IgG4 (antibody, V domains shown)
VH: B1 VH with Y110N
VL: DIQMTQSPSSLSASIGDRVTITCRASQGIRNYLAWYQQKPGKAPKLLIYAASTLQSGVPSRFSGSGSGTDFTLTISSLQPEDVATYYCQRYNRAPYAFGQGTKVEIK
notes: IgG4
B23: VH1A11/2SD4 VL scFv (scFv, V domains shown)
VH: B1 VH with A97T, V99A, A105S, Y110D
VL: B3 VL
notes: scFv
B24: VH1D8/2SD4 VL scFv (scFv, V domains shown)
VH: B1 VH with K98R, V99A, A105S
VL: B3 VL
notes: scFv
B25: VH1G1/2SD4 VL scFv (scFv, V domains shown)
VH: B1 VH with V93A, V99A, A105S
VL: B3 VL
notes: scFv
B26: VH1-D2.Y/LOE7.A IgG4 (antibody, V domains shown)
VH: B1 VH
VL: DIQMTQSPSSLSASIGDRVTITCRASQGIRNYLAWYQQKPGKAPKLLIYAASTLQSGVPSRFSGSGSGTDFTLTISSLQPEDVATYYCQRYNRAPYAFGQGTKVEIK
notes: IgG4
B27: 2SD4 VH/VLLOH1 scFv (scFv, V domains shown)
VH: B1 VH with A97T, V99A, A105S, Y110N
VL: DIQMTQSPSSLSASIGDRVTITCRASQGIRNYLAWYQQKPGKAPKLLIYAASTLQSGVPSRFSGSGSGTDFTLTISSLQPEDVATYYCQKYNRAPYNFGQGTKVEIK
notes: scFv
B28: 2SD4 VH/VL0.1H8 scFv (scFv, V domains shown)
VH: B1 VH with A97T, V99A, A105S, Y110N
VL: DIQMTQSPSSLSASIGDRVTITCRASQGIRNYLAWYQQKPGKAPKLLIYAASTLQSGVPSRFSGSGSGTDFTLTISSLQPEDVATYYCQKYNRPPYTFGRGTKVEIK
notes: scFv
B29: 2SD4 VH/VL100A9 scFv (scFv, V domains shown)
VH: B1 VH with A97T, V99A, A105S, Y110N
VL: B3 VL with N92S, A97T
notes: scFv
B30: 2SD4 VH/VL1B7 scFv (scFv, V domains shown)
VH: B1 VH with A97T, V99A, A105S, Y110N
VL: B3 VL with K90Q, Y96D, A97T, F98W
notes: scFv

Tests used:
recombinant human TNFα = recombinant human TNFα (human, UniProt P01375 77-233, The active form is a noncovalent homotrimer; one protomer is given.); experiment: cell-based or functional assay
Sequence of recombinant human TNFα (P01375 77-233 limits assumed): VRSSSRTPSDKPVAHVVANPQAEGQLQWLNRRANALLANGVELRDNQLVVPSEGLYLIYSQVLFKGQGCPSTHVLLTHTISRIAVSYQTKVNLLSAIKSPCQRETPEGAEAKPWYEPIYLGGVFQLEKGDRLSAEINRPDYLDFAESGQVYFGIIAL

[1] = target: T1, biotinylated recombinant human TNFα (human, UniProt P01375 77-233, biotinylated (D-biotinyl-ε-aminocaproic acid N-hydroxysuccinimide ester, 2:1 molar ratio of biotin to rhTNFα)); experiment: SPR (BIAcore), biotinylated rhTNFα, format IgG1/IgG4
T1 construct: mature; Immobilized via streptavidin on the BIAcore chip; also called biotinylated rhTNFα; biotinylated rhTNF
T1 sequence (P01375 77-233 limits assumed): as above
Experimental: (§1) Before injection of the protein and immediately afterward, PBS buffer alone flowed through each flow cell. […] Antibodies (20 μg/ml) were diluted in PBS running buffer and 25 μl aliquots were injected through the immobilized protein matrices at a flow rate of 5 μl/min. Prior to injection of antibody, and immediately afterwards, PBS buffer alone flowed through each flow cell. The net difference in baseline signal and signal after completion of antibody injection was taken to represent the binding value of the particular sample. Biosensor matrices were regenerated using 100 mM HCI before injection of the next sample. To determine the off rate (Koff), on rate (Kₒₙ), association rate (Kₐ) and dissociation rate (Kd) constants, BIAcore kinetic evaluation software (version 2.1) was used.

[2] = target: T1, biotinylated recombinant human TNFα; experiment: SPR (BIAcore), biotinylated rhTNFα, scFv
Experimental: as §1

[3] = target: T1, biotinylated recombinant human TNFα; experiment: SPR (BIAcore), biotinylated rhTNFα, IgG4
Experimental: as §1

[4] = target: T1, biotinylated recombinant human TNFα; experiment: SPR (BIAcore), scFv, reference VH1-D2/LOE7
Experimental: as §1

[5] = target: T1, biotinylated recombinant human TNFα; experiment: SPR (BIAcore), scFv; reference taken to be VH1-D2/LOE7
Experimental: as §1

Binder	koff [2] [s⁻¹]	also measured
B1	–	IC50, neutralization of TNFα-induced L929 cytotoxicity (recombinant human TNFα): 0.34 nM; koff [1]: 7.7e-05 s⁻¹
B2	0.00046	–
B3	–	IC50, neutralization of TNFα-induced L929 cytotoxicity (recombinant human TNFα): 300 nM
B4	–	koff [3]: 2.1e-05 s⁻¹; IC50, neutralization of TNFα-induced L929 cytotoxicity (recombinant human TNFα): 0.13 nM
B5	0.0159	–
B6	0.0229	–
B7	0.0098	–
B8	0.0156	–
B9	0.0134	–
B10	0.0101	–
B11	0.0111	–
B12	0.0008	fold faster off rate against LOE7 [4]: 2 fold
B13	0.0067	–
B14	0.0141	–
B15	0.00194	IC50, neutralization of TNFα-induced L929 cytotoxicity (recombinant human TNFα): 10 nM; fold faster off rate [5]: 5 fold
B16	0.0176	–
B17	0.02	–
B18	0.0096	–
B19	0.0146	–
B20	0.0136	–
B21	0.0112	–
B22	–	koff [3]: 3.2e-05 s⁻¹; IC50, neutralization of TNFα-induced L929 cytotoxicity (recombinant human TNFα): 0.062 nM
B23	0.0134	–
B24	0.0095	–
B25	0.0214	–
B26	–	koff [3]: 2.7e-05 s⁻¹; IC50, neutralization of TNFα-induced L929 cytotoxicity (recombinant human TNFα): 0.028 nM
B27	0.0117	–
B28	0.0114	–
B29	0.0133	–
B30	0.013	–
